How the values were obtained:
[1] = biological target: Gama Fc Receptor 1 (CD64) (human) (UniProt P12314); experiment: SPR
FcγRIIA R167 (human) = FcγRIIA R167 (human) (UniProt P12318); experiment: SPR
FcγRIIB/C (human) = FcγRIIB/C (human) (UniProt P31994); experiment: SPR
C1q (human) = C1q (human) (UniProt P02745); experiment: ELISA; C1q binding ELISA: plates coated with 5 ug/mL CA521 subtypes or OPDIVO (IgG4), fourfold serial dilutions starting at 40 ug/mL, 2 h at 37 C, C1q detected by HRP anti-human C1q; x axis of the figure: antibody concentration (nM); duplicate
Sequence of C1q (human) (P02745 23-245, chain 1 of 3): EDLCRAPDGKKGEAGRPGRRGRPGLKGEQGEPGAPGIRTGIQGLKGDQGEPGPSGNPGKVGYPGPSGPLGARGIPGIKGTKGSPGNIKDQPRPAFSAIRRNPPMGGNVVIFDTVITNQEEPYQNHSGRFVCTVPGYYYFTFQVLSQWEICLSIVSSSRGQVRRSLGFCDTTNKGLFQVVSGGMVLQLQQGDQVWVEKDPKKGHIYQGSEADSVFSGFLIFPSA
Sequence of C1q (human) (P02746 28-253, chain 2 of 3, further chain): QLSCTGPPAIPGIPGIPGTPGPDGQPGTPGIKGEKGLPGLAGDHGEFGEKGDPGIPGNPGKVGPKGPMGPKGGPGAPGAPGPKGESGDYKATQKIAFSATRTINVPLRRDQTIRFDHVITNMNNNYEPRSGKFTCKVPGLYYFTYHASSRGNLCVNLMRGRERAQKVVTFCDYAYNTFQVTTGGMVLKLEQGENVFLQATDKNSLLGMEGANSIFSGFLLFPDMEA
Sequence of C1q (human) (P02747 29-245, chain 3 of 3, further chain): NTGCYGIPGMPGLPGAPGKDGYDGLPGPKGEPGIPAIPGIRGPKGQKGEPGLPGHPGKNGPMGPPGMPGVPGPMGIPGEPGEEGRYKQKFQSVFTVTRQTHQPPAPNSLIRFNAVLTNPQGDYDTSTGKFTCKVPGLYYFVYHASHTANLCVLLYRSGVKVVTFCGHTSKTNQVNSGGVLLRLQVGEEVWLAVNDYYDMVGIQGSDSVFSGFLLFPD

Sequence of FcγRIIB/C (human) (P31994 43-217): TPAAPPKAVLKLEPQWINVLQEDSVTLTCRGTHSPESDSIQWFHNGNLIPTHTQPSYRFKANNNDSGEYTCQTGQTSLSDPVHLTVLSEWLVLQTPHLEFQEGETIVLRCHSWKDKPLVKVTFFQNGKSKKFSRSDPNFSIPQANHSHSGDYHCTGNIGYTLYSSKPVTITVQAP
Sequence of FcγRIIA R167 (human) (P12318 34-217 H167R): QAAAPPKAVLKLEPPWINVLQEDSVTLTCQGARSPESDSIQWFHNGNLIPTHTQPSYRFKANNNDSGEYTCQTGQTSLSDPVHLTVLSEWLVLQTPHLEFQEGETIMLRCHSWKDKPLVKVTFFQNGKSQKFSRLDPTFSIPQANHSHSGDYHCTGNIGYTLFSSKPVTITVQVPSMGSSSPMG
Sequence of Gama Fc Receptor 1 (CD64) (human) (P12314 16-374): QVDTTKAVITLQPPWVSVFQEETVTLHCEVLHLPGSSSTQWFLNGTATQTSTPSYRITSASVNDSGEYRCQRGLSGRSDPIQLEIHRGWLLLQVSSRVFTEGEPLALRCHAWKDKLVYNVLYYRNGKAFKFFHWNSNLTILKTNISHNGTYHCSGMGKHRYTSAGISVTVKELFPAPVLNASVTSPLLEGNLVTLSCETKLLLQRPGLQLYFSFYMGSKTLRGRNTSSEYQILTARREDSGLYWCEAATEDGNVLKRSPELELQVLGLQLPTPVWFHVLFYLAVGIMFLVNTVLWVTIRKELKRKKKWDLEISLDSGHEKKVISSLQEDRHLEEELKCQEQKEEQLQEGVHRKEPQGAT

For CA521(IgG1) (from UniProt P01857), which Kd [1] is on record?
The Kd was 3.12 nM.

And the Kd (FcγRIIA R167 (human))?
Its Kd is 5110 nM.

And the Kd (FcγRIIB/C (human))?
Its Kd is 20400 nM.

Which IC50 (C1q (human)) does the source give for Opdivo (IgG4) (antibody) here?
Its IC50 is 35.9 nM.
